# Publication PMC4480132, “MAF1 represses CDKN1A through a Pol III-dependent mechanism”
# T1: MAF1 (His-tagged, Fitzgerald 80R-1955) (UniProt Q9H063 1-256)
# T1 sequence: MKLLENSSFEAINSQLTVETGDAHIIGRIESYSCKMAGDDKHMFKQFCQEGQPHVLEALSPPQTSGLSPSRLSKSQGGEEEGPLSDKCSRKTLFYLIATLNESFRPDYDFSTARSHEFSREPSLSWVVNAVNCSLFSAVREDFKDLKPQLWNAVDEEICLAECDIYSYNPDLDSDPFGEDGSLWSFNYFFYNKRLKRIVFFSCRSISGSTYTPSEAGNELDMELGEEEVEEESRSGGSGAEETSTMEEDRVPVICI
# Molecular target: T1, MAF1 (His-tagged, Fitzgerald 80R-1955)
# Test: colorimetric DNA-protein binding assay (ab117139); 40 ng biotin probe, 500 ng MAF1; IP-qPCR: 20 mM HEPES pH 7.6, 150 mM NaCl, 0.25 mM EDTA, 10% glycerol, 0.2% NP40, 1 mM DTT, 200 ng BSA, 50 ul, 20 ng DNA, 400 ng MAF1, 4 C/ice; colorimetric: Abcam ab117139 kit conditions
# Details: protein: commercial; tags: His6; label: 5' biotin (probe)
binder,measurement,value
p21 A-box probe (CDKN1A MIR3) (dsDNA) DNA 1: AATCAACAACTTTGTATACTTAAGTTCAGTGGACCTCAATTTCCTCATCTGTGAAATAAA DNA 2: TTTATTTCACAGATGAGGAAATTGAGGTCCACTGAACTTAAGTATACAAAGTTGTTGATT,binding result,binds
